Our source for the Kd values is EP4559472A1.

The target of this test is Biotinylated C4b (UniProt P0C0L4). The test can be described thus: SPR, biotinylated C4b on streptavidin chip, 1:1 steady-state affinity model. (SPR reads the build-up and loss of mass on a sensor chip optically.)

By Kd is commonly meant the concentration at which binding is half-saturated. Higher therefore signals weaker binding.

mini-C4BP, sequence (P08603 other isoform, or with tags, fused parts or gaps): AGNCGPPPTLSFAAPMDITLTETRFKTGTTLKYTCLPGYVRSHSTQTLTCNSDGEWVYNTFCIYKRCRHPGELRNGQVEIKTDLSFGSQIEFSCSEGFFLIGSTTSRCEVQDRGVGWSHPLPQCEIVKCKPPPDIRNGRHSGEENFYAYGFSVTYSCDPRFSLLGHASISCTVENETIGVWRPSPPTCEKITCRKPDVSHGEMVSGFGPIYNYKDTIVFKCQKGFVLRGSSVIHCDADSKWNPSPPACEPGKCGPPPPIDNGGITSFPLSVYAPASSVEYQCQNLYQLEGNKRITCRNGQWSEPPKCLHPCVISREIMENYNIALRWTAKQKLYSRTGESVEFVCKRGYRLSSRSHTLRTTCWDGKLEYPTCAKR

“mini-C4BP (from UniProt P08603 1107-1231)” registered a dissociation constant Kd of 600 nM.
